{"source": "paper PMC3985815", "proteins": {"B1": {"name": "Cv1693 (Chromobacterium violaceum ATCC 12472) (protein)", "chain": "MANIDLHFHSRTSDGALTPTEVIDRAAARAPALLALTDHDCTGGLAEAAAAAARRGIPFLNGVEVSVSWGRHTVHIVGLGIDPAEPALAAGLKSIREGRLERARQMGASLEAAGIAGCFDGAMRWCDNPEMISRTHFARHLVDSGAVKDMRTVFRKYLTPGKPGYVSHQWASLEDAVGWIVGAGGMAVIAHPGRYDMGRTLIERLILDFQAAGGQGIEVASGSHSLDDMHKFALHADRHGLYASSGSDFHAPGEGGRDVGHTEDLPPICRPIWRELEARILRPAD"}}, "test_in_all_cases": "purified protein", "key": {"purified protein [1]": {"substrate": "Nc1ncnc2c1ncn2[C@@H]1O[C@H](COP(=O)(O)O[C@H]2[C@@H](O)[C@H](n3cnc4c(N)ncnc43)O[C@@H]2COP(=O)(O)O)[C@@H](O)[C@H]1O", "conditions": "50 mM HEPES, 250 mM KCl, 5.0 mM MgCl2, pH 7.5"}, "purified protein [2]": {"substrate": "Nc1ncnc2c1ncn2[C@H]1C[C@H](OP(=O)(O)O)[C@@H](COP(=O)(O)O)O1", "conditions": "25 mM HEPES, 250 mM KCl, pH 7.5, 30 °C"}, "purified protein [3]": {"substrate": "O=c1ccn([C@H]2C[C@H](OP(=O)(O)O)[C@@H](COP(=O)(O)O)O2)c(=O)[nH]1", "conditions": "25 mM HEPES, 250 mM KCl, pH 7.5, 30 °C"}, "purified protein [4]": {"substrate": "Nc1nc2c(ncn2[C@H]2C[C@H](OP(=O)(O)O)[C@@H](COP(=O)(O)O)O2)c(=O)[nH]1", "conditions": "25 mM HEPES, 250 mM KCl, pH 7.5, 30 °C"}, "purified protein [5]": {"substrate": "Nc1ncnc2c1ncn2[C@@H]1O[C@H](COP(=O)(O)O)[C@@H](OP(=O)(O)O)[C@H]1O", "conditions": "25 mM HEPES, 250 mM KCl, pH 7.5, 30 °C"}, "purified protein [6]": {"substrate": "Nc1ccn([C@H]2C[C@H](OP(=O)(O)O)[C@@H](COP(=O)(O)O)O2)c(=O)n1", "conditions": "25 mM HEPES, 250 mM KCl, pH 7.5, 30 °C"}, "purified protein [7]": {"substrate": "CNc1ncnc2c1ncn2[C@@H]1O[C@H](COP(=O)(O)O)[C@@H](OP(=O)(O)O)[C@H]1O", "conditions": "25 mM HEPES, 250 mM KCl, pH 7.5, 30 °C"}, "purified protein [8]": {"substrate": "Cc1cn([C@H]2C[C@H](OP(=O)(O)O)[C@@H](COP(=O)(O)O)O2)c(=O)[nH]c1=O", "conditions": "25 mM HEPES, 250 mM KCl, pH 7.5, 30 °C"}, "purified protein [9]": {"substrate": "O=c1[nH]cnc2c1ncn2[C@H]1C[C@H](OP(=O)(O)O)[C@@H](COP(=O)(O)O)O1", "conditions": "25 mM HEPES, 250 mM KCl, pH 7.5, 30 °C"}}}
{"protein": "B1", "values": [{"measurement": "Km", "setting": "purified protein [1]", "value": "1.6 ± 0.2", "unit": "µM"}, {"measurement": "kcat", "setting": "purified protein [1]", "value": "0.05 ± 0.01", "unit": "s⁻¹"}, {"measurement": "kcat/Km", "setting": "purified protein [1]", "value": "32000 ± 3000", "unit": "M⁻¹ s⁻¹"}, {"measurement": "Km", "setting": "purified protein [2]", "value": "10.2 ± 0.9", "unit": "µM"}, {"measurement": "kcat", "setting": "purified protein [2]", "value": "7.1 ± 0.2", "unit": "s⁻¹"}, {"measurement": "kcat/Km", "setting": "purified protein [2]", "value": "700000 ± 60000", "unit": "M⁻¹ s⁻¹"}, {"measurement": "Km", "setting": "purified protein [3]", "value": "29 ± 4", "unit": "µM"}, {"measurement": "kcat", "setting": "purified protein [3]", "value": "5.2 ± 0.2", "unit": "s⁻¹"}, {"measurement": "kcat/Km", "setting": "purified protein [3]", "value": "180000 ± 20000", "unit": "M⁻¹ s⁻¹"}, {"measurement": "Km", "setting": "purified protein [4]", "value": "5.2 ± 0.4", "unit": "µM"}, {"measurement": "kcat", "setting": "purified protein [4]", "value": "4.2 ± 0.1", "unit": "s⁻¹"}, {"measurement": "kcat/Km", "setting": "purified protein [4]", "value": "790000 ± 60000", "unit": "M⁻¹ s⁻¹"}, {"measurement": "Km", "setting": "purified protein [5]", "value": "15.5 ± 2.4", "unit": "µM"}, {"measurement": "kcat", "setting": "purified protein [5]", "value": "22 ± 1", "unit": "s⁻¹"}, {"measurement": "kcat/Km", "setting": "purified protein [5]", "value": "1.4e+06 ± 200000", "unit": "M⁻¹ s⁻¹"}, {"measurement": "Km", "setting": "purified protein [6]", "value": "26 ± 3", "unit": "µM"}, {"measurement": "kcat", "setting": "purified protein [6]", "value": "9.4 ± 0.3", "unit": "s⁻¹"}, {"measurement": "kcat/Km", "setting": "purified protein [6]", "value": "360000 ± 50000", "unit": "M⁻¹ s⁻¹"}, {"measurement": "Km", "setting": "purified protein [7]", "value": "5.4 ± 1.0", "unit": "µM"}, {"measurement": "kcat", "setting": "purified protein [7]", "value": "11.6 ± 0.4", "unit": "s⁻¹"}, {"measurement": "kcat/Km", "setting": "purified protein [7]", "value": "2.1e+06 ± 400000", "unit": "M⁻¹ s⁻¹"}, {"measurement": "Km", "setting": "purified protein [8]", "value": "9.3 ± 1.0", "unit": "µM"}, {"measurement": "kcat", "setting": "purified protein [8]", "value": "3.3 ± 0.1", "unit": "s⁻¹"}, {"measurement": "kcat/Km", "setting": "purified protein [8]", "value": "360000 ± 40000", "unit": "M⁻¹ s⁻¹"}, {"measurement": "Km", "setting": "purified protein [9]", "value": "22 ± 3", "unit": "µM"}, {"measurement": "kcat", "setting": "purified protein [9]", "value": "4.3 ± 0.2", "unit": "s⁻¹"}, {"measurement": "kcat/Km", "setting": "purified protein [9]", "value": "190000 ± 30000", "unit": "M⁻¹ s⁻¹"}]}
